# In PMC8317929 (mAbs, 2021):
# What was measured:
# [1] = molecular target: SARS-CoV-2 RBD recombinant protein (SARS-CoV-2, Wuhan-Hu-1 (QHD43416.1), UniProt P0DTC2); assay: BLI
# [2] = molecular target: SARS-CoV RBD recombinant protein (SARS-CoV; strain of construct not …, UniProt Q19QX0); assay: BLI
Binder,binding result [1],Kd [1],Kd [2]
"MW05 (antibody, V domains shown) VH: EVQLVQSGAEVKKPGSSVKVSCKASGGTFSSYAISWVRQAPGQGLEWMGRIIPIFGSSNYAQKFQGRVTITADESTSTAYMELSSLRSEDTAVYYCAESPLGGGSGYSVSWFDPWGQGTLVTVSS VL: not shown",binds,,
"MW06 (antibody, V domains shown) VH: EVQLLESGGGLVQPGGSLRLSCAASGFTFSSYAMNWVRQAPGKGLEWVSVISGSGGSTYYADSVRGRFTISRDNSKNTLYLQMNSLRAEDTAVYCCAKGYYYDSSGYYFREDAFDIWGQGTLVTVSS VL: DIQMTQSPSAMSASVGDRVTITCRASQGISNYLAWFQQKPGKVPKRLIYAASSLQSGVPSRFSGSGSGTEFTLTISSLQPEDFATYYCLQHNSYPYTFGQGTKLEIK",,5.48 nM,12.3 nM
